Experimental data from patent US20140248635A1, “ALPHA-TUBULIN […]” (University of Georgia Research Foundation, Inc., priority 2010, published 2014).

B1: GST-MmMEC-17: recombinant murine MEC-17 expressed in E. coli as a GST fusion (protein)
chain: MEFPFDVDALFPERITVLDQHLRPPARRPGTTTPARVDLQQQIMTIVDELGKASAKAQHLPAPITSALRMQSNRHVIYILKDTSARPAGKGAIIGFLKVGYKKLFVLDDREAHNEVEPLCILDFYIHESVQRHGHGRELFQHMLQKERVEPHQLAIDRPSPKLLKFLNKHYNLETTVPQVNNFVIFEGFFAHQHRPPTSSLRATRHSRAAVADPIPAAPARKLPPKRAEGDIKPYSSSDREFLKVAVEPPWPLNRAPRRATPPAHPPPRSSSLGNSPDRGPLRPFVPEQELLRSLRLCPPHPTARLLLATDPGGSPAQRRRTRGTPWGLVAQSCHYSRHGGFNTSFLGTGNQERKQGEQEAEDRSASEDRVLLLDGSGEEPTQTGAPRAQAPPPQSWTVGGDIMNARVIRNLQERRSTRPW
modifications: left off: a dimerising Fc or GST
notes: recombinant murine MEC-17 expressed in E. coli as a GST fusion
B2: GFP-Mec17p: crude GFP-Mec17p-enriched fraction obtained from transgenic Tetrahymena (protein)
chain: MFKNQLLSLSLRIQKLRLCRQGNQLKVLQKSINQLLFKTQSIDQILQYLQQKKKTHQSILENQNQHIHSIGLVSQLTNQKINKQKNQKAMEFNFIINKLVQLDQQGLGVYIPRASRSKVSSQQEQQLGQVLNTMGERSAIAQGLKQVITNYDKVQGTDQRVYIVAEGRTCQGFLKVGQKNLFYRDMMGNIKEIKPLCVLDFYVHESCQRQGYGKLLFEYMIQCEQTSPEKLAYDRPSPKLIAFLKKHYNLVKYIAQNNNFVVFDQYFRSDASSQNKQNQNTRSYSQPYSDYSSQIPTNYPQQQQQQSNSKSYPYKQENNIDLMQHSSSRNNKEFLNAGRAILSKEEIYKKDNLSQQNIENTLNNINNSQYSTKSQQQQQYQKDYQLDKYENNWGADKNIKKPPFPGQDRQLDKIQQKIQQTERELDVVNQQIIKQRQNLSQDPLTQNHRAQNVYNTNQFGTSPWAQTGFNYYSTSSSNYGNHYTYYKK
modifications: left off: large carriers
notes: crude GFP-Mec17p-enriched fraction obtained from transgenic Tetrahymena

Experiments:
[1] = target: T1, K40 of α-tubulin (Tetrahymena MEC17-KO axonemes or tubulin) (Tetrahymena thermophila, UniProt P41351); test: In vitro tubulin acetyltransferase assay: activity of MEC-17 enzyme preparations; assay type: biochemical; details: for αTAT activity on MEC17-KO axonemes: with acetyl-CoA, western 6-11 B-1
T1 construct: Total tubulin was purified from the MEC17-KO strain of Tetrahymena; endogenous in cells; host or cells: Tetrahymena MEC17-KO strain (axonemes from cilia, or DEAE-purified tubulin)
T1 sequence (P41351 whole entry): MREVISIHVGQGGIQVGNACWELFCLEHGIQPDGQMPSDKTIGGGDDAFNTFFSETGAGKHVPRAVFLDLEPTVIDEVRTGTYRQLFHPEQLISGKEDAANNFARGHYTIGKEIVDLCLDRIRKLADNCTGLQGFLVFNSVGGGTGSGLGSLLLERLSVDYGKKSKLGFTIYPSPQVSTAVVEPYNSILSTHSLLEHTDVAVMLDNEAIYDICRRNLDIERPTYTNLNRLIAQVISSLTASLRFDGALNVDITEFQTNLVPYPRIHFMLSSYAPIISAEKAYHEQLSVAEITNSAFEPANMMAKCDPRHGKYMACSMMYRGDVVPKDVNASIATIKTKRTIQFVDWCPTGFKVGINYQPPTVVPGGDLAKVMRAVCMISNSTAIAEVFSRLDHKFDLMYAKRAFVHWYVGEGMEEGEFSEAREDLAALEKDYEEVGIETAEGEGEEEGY
T1 sequence (P41352 whole entry partner): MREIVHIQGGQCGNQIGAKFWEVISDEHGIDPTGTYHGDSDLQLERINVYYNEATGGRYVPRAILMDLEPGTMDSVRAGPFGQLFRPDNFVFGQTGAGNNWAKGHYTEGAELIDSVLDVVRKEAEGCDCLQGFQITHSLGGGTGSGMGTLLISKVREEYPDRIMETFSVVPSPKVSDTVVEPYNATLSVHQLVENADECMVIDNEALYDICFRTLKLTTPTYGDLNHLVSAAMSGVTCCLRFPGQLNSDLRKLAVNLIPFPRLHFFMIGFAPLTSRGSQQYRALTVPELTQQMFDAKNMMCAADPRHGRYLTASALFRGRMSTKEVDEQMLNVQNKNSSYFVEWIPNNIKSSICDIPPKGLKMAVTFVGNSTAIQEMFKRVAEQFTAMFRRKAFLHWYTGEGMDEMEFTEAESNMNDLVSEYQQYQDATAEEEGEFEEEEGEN
From the text: (§1) To disrupt the MEC-17 gene in Tetrahymena, we used homologous DNA recombination with a fragment carrying the neo4 marker that replaced the coding region. MEC-17 was overexpressed in Tetrahymena using the MTT1 cadmium-dependent promoter. In C. elegans, MEC-12-K40, MEC-12-Q40, and MEC-12-R40 transgenes were introduced into a single site on chromosome II in the EG4322 strain. Animals homozygous for a MEC-12 transgene and homozygous for the mec-12(e1607) allele were obtained by standard crosses. All touch sensation assays in C. elegans were done using blind scoring. To deplete human MEC-17 (C6Orf134) mRNA in Hela cells, we introduced MEC-17-specific siRNAs (ON-TARGETplus pool, Dharmacon) using Oligofectamine (Invitrogen). To knockdown mec17 expression in zebrafish, MOs designed to target the MEC-17 mRNA (Open Biosystems) were injected into early embryos. ATG-MEC17 MO targets the translation initiation site of mec17 mRNA. SP-MEC17 MO targets the exon3/intron3-4 splice junction, and is expected to result in an aberrant splicing isoform of exon2 to exon 4, producing a frameshift mutation and associated protein truncation. As a negative control, we injected MO with a random sequence (oligo-25N, Gene Tools) or a 5 bp mismatch to the ATG-MEC17 MO. Live embryos were scored for phenotypes at 48 hpf. To produce a recombinant MEC-17 protein, the cDNA sequence of the murine MEC-17 (BF135007, Open Biosystems) was subcloned into pGEX-3× plasmid (GE Healthcare), expressed in BL21 E. coli cells as a GST fusion and purified using GST-Bind kit (Novagen). The in vitro acetylation assays were performed in 50 mM Tris-HCl pH 8.0, […], 0.1 mM EDTA, with purified Tetrahymena MEC-17-KO axonemes or tubulin (purified using DEAE chromatography), recombinant GST-MmMEC-17 enzyme and 10 μM acetyl-CoA. The reaction was detected by western blotting using anti-acetyl-K antibodies.
(§2) To prepare MEC 17-KO axonemes, Tetrahymena cells were grown to the mid-log phase and deciliated by pH shock (Wloga et al., 2008 Eukaryot Cell 7:1362-1372). Cilia were suspended in 1 ml of 1% NP-40 in the axoneme buffer (30 mM HEPES, 20 mM potassium acetate, 5 mM MgSO4, 0.5 mM EDTA, pH 7.6) with Complete protease inhibitors (Roche). After 1-2 min on ice, axonemes were collected by centrifugation (20,000×g, 15 min, 4° C.), suspended in the in vitro acetylation reaction buffer (50 mM Tris HCl, pH 8.0, 10% glycerol, 0.1 mM EDTA, 1 mM DTT) with protease inhibitors and stored at −80° C.
(§3) Total tubulin was purified from the MEC17-KO strain of Tetrahymena using a protocol modified after Yakovich and colleagues (Yakovich et al., 2006 Exp Parasitol 114:289-296). […]

[2] = target: T2, K40 of α-tubulin (Tetrahymena MEC17-KO axonemes or tubulin) (Tetrahymena thermophila, UniProt P41351, K40R); test: as above; assay type: biochemical; details: pan acetyl-K antibodies
T2 construct: Total tubulin was purified from the MEC17-KO strain of Tetrahymena; endogenous in cells; host or cells: Tetrahymena MEC17-KO strain (axonemes from cilia, or DEAE-purified tubulin)
T2 sequence (P41351 whole entry K40R): as the sequence (P41351 whole entry) above, with K40R counted along it
T2 sequence (P41352 whole entry, further chain): as the sequence (P41352 whole entry partner) above
From the text: as §1, §2, §3

Molecule | K40 acetylation activity on purified tubulin ([1]; highly purified tubulin from MEC17-KO cells) | αTAT activity on MEC17-KO axonemes [1] | acetylation of R40 axonemes (K40R mutant) [2]
B1 | robust K40 acetylation activity | robust αTAT activity | failed to acetylate
B2 | – | had K40 αTAT activity | –
